Measured values: article PMC6127106 (2018)
Each block holds one binder with its values, some of them ahead of it.

Target: purified human platelet αIIbβ3 integrin (human, UniProt P05106 27-788)
Assay: 2D off-rate, biomembrane force probe adhesion frequency

koff: 8.41 s⁻¹
B1: human fibrinogen (ligand)
chain 1: GPRVVERHQSACKDSDWPFCSDEDWNYKCPSGCRMKGLIDEVNQDFTNRINKLKNSLFEYQKNNKDSHSLTTNIMEILRGDFSSANNRDNTYNRVSEDLRSRIEVLKRKVIEKVQHIQLLQKNVRAQLVDMKRLEVDIDIKIRSCRGSCSRALAREVDLKDYEDQQKQLEQVIAKDLLPSRDRQHLPLIKMKPVPDLVPGNFKSQLQKVPPEWKALTDMPQMRMELERPGGNEITRGGSTSYGTGSETESPRNPSSAGSWNSGSSGPGSTGNRNPGSSGTGGTATWKPGSSGPGSTGSWNSGSSGTGSTGNQNPGSPRPGSTGTWNPGSSERGSAGHWTSESSVSGSTGQWHSESGSFRPDSPGSGNARPNNPDWGTFEEVSGNVSPGTRREYHTEKLVTSKGDKELRTGKEKVTSGSTTTTRRSCSKTVTKTVIGPDGHKEVTKEVVTSEDGSDCPEAMDLGTLSGIGTLDGFRHRHPDEAAFFDTASTGKTFPGFFSPMLGEFVSETESRGSESGIFTNTKESSSHHPGIAEFPSRGKSSSYSKQFTSSTSYNRGDSTFESKSYKMADEAGSEADHEGTHSTKRGHAKSRPVRDCDDVLQTHPSGTQSGIFNIKLPGSSKIFSVYCDQETSLGGWLLIQQRMDGSLNFNRTWQDYKRGFGSLNDEGEGEFWLGNDYLHLLTQRGSVLRVELEDWAGNEAYAEYHFRVGSEAEGYALQVSSYEGTAGDALIEGSVEEGAEYTSHNNMQFSTFDRDADQWEENCAEVYGGGWWYNNCQAANLNGIYYPGGSYDPRNNSPYEIENGVVWVSFRGADYSLRAVRMKIRPLVTQ
chain 2: GHRPLDKKREEAPSLRPAPPPISGGGYRARPAKAAATQKKVERKAPDAGGCLHADPDLGVLCPTGCQLQEALLQQERPIRNSVDELNNNVEAVSQTSSSSFQYMYLLKDLWQKRQKQVKDNENVVNEYSSELEKHQLYIDETVNSNIPTNLRVLRSILENLRSKIQKLESDVSAQMEYCRTPCTVSCNIPVVSGKECEEIIRKGGETSEMYLIQPDSSVKPYRVYCDMNTENGGWTVIQNRQDGSVDFGRKWDPYKQGFGNVATNTDGKNYCGLPGEYWLGNDKISQLTRMGPTELLIEMEDWKGDKVKAHYGGFTVQNEANKYQISVNKYRGTAGNALMDGASQLMGENRTMTIHNGMFFSTYDRDNDGWLTSDPRKQCSKEDGGGWWYNRCHAANPNGRYYWGGQYTWDMAKHGTDDGVVWMNWKGSWYSMRKMSMKIRPFFPQQ
chain 3: YVATRDNCCILDERFGSYCPTTCGIADFLSTYQTKVDKDLQSLEDILHQVENKTSEVKQLIKAIQLTYNPDESSKPNMIDAATLKSRKMLEEIMKYEASILTHDSSIRYLQEIYNSNNQKIVNLKEKVAQLEAQCQEPCKDTVQIHDITGKDCQDIANKGAKQSGLYFIKPLKANQQFLVYCEIDGSGNGWTVFQKRLDGSVDFKKNWIQYKEGFGHLSPTGTTEFWLGNEKIHLISTQSAIPYALRVELEDWNGRTSTADYAMFKVGPEADKYRLTYAYFAGGDAGDAFDGFDFGDDPSDKFFTSHNGMQFSTWDNDNDKFEGNCAEQDGSGWWMNKCHAGHLNGVYYQGGTYSKASTPNGYDNGIIWATWKTRWYSMKKTTMKIIPFNRLTIGEGQQHHLGGAKQVRPEHPAETEYDSLYPEDDL

koff: 7.85 s⁻¹
B2: C-terminal biotinylated recombinant human apoA-IV (apoA-IV-GGC) (ligand)
chain: EVSADQVATVMWDYFSQLSNNAKEAVEHLQKSELTQQLNALFQDKLGEVNTYAGDLQKKLVPFATELHERLAKDSEKLKEEIGKELEELRARLLPHANEVSQKIGDNLRELQQRLEPYADQLRTQVSTQAEQLRRQLTPYAQRMERVLRENADSLQASLRPHADELKAKIDQNVEELKGRLTPYADEFKVKIDQTVEELRRSLAPYAQDTQEKLNHQLEGLTFQMKKNAEELKARISASAEELRQRLAPLAEDVRGNLRGNTEGLQKSLAELGGHLDQQVEEFRRRVEPYGENFNKALVQQMEQLRQKLGPHAGDVEGHLSFLEKDLRDKVNSFFSTFKEKESQDKTLSLPELEQQQEQQQEQQQEQVQMLAPLESGGC
modifications: maleimide-PEG2-biotin on the C-terminal cysteine of the GlyGlyCys linker
